# Assay results from PMC3618588.
# Columns and labels:
# [1] = molecular target: His6-JAK2 JH1 (836-1132), phosphorylated (JAK2^pY1007/pY1008) (mouse) (UniProt Q62120)
# [2] = molecular target: His6-JAK2 JH1 (836-1132), phosphorylated (JAK2^pY1007/pY1008) (mouse) (UniProt Q62120); remark: listed apart in the source
# Chain of UniProt Q62120 (Q62120 836-1132): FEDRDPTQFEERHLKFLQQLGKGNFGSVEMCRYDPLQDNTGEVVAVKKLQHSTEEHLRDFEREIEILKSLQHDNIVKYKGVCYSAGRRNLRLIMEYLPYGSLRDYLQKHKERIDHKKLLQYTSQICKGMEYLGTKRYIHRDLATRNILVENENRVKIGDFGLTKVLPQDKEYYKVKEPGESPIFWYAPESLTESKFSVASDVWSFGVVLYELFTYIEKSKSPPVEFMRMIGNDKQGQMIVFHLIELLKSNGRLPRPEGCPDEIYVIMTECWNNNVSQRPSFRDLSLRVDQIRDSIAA
Substance,"IC50^mutant/IC50^WT, inhibition of JAK2 JH1 kinase activity [1]",IC50 of inhibition of JAK2 kinase activity by the isolated peptide [2]
SOCS3 K28A / elonginBC complex (from UniProt O35718 22-225; Q15370 1-118; Q15369 1-112),2.8 ratio to WT,–
SOCS3 K23A / elonginBC complex (from UniProt O35718 22-225; Q15370 1-118; Q15369 1-112),1.4 ratio to WT,–
SOCS3 L22F / elonginBC complex (from UniProt O35718 22-225; Q15370 1-118; Q15369 1-112),0.1 ratio to WT,–
SOCS3 Y47F / elonginBC complex (from UniProt O35718 22-225; Q15370 1-118; Q15369 1-112),80 ratio to WT,–
SOCS3 S26A / elonginBC complex (from UniProt O35718 22-225; Q15370 1-118; Q15369 1-112),1 ratio to WT,–
SOCS3 T24A / elonginBC complex (from UniProt O35718 22-225; Q15370 1-118; Q15369 1-112),3.3 ratio to WT,–
SOCS3 E30A / elonginBC complex (from UniProt O35718 22-225; Q15370 1-118; Q15369 1-112),23 ratio to WT,–
SOCS3 R77A / elonginBC complex (from UniProt O35718 22-225; Q15370 1-118; Q15369 1-112),1.4 ratio to WT,–
SOCS3 S29A / elonginBC complex (from UniProt O35718 22-225; Q15370 1-118; Q15369 1-112),2 ratio to WT,–
SOCS3 Y31A / elonginBC complex (from UniProt O35718 22-225; Q15370 1-118; Q15369 1-112),6 ratio to WT,–
SOCS3^22-225 / elonginBC complex (wild type) (from UniProt O35718;Q15370;Q15369),1 ratio to WT,–
SOCS3 S27A / elonginBC complex (from UniProt O35718 22-225; Q15370 1-118; Q15369 1-112),2.5 ratio to WT,–
isolated KIR peptide from SOCS1,–,100 µM
SOCS3 L22A / elonginBC complex (from UniProt O35718 22-225; Q15370 1-118; Q15369 1-112),1.2 ratio to WT,–
SOCS3 A50K / elonginBC complex (from UniProt O35718 22-225; Q15370 1-118; Q15369 1-112),6 ratio to WT,–
SOCS3 T52A / elonginBC complex (from UniProt O35718 22-225; Q15370 1-118; Q15369 1-112),10 ratio to WT,–
SOCS3 A50E / elonginBC complex (from UniProt O35718 22-225; Q15370 1-118; Q15369 1-112),1.1 ratio to WT,–
